Assay results: the DeepSol protein solubility set

experiment: soluble on expression in E. coli; label from the status in PepcDB or PDB records

Soluble on expression in E. coli, not soluble:
MGSDKIHHHHHHMLRGMYTASGAMQALQRQQEMLSNNLANARTPGFRADQASLRTFPEMMIQQSGVNEQSGVRSRGTVGKLATGVFMQAATPNFALGSITETGNATDLQISSLEGAALFTIRHADPATGEEETLYTTNGQFAVGQDGLLRTTENDLVLGDAGQPLNVVNEDFTVSADGAVTDGNGQAIGNLGLVVTNQPETLERTGNGLFRSPDALNGGAIKVDQGVLELGNVEVEQTMTEMNAGLRQFEANQKVIQAYDRTAEKAVSEIGRVR, MGSDKIHHHHHHMLSNKNKIRKLLNGIETGDPDAALVVNEQKYIQHNPHTKEGNIGLAELFKQIAKTGPRVNMIRVFEDKDFVFAHMEYHFSTLKVAFEVFRFEDGFAVEHWDNMQLMQKVNASGRSMLDGYLITEDHDLTEFNRSRVSLFANEILIKRKLDLLIDFVCDDNFIQHSPLLADGISALRSTLSATSKQKYKITYSKIHRVLAEGNFVLSVSEGLMDEKHCSFYDLYRIEKGKIVEHWDTIEPIPPRTEWKNDNGKF, MGSDKIHHHHHHMLSRILEKYRENGIQGIVLALISRFPGVRAVCVYYVYRLPFDKLVRKQLSVGNLKVVQVKSDSMGDLIRVQDKPDIFGERFQMGHYGFVAYVNNDPVAYLWGQEGPVHVERRFGFEVPIKDNQVFYYDSYTIPEWRKSGVGRALIQESIDFFKNGLGKSELIAIIETGNLVSQKTYERMGFVREAMHIHLDIIGKKINKQLARMVTQ, MGSDKIHHHHHHMLSRTADHLFWMARYTERAENTARMLDVNYQTSLLPQSAEVAEQGWWAMLDISELTNAFDHKYGLLTRDDVIDFMVRDMTNPSSIMSCLRAARENARAVRGSLTTEVWETVNTTWLDVQRMIADGELQEDPSRFFEWVKFRSHLARGVQFGTMLKDDAFHFMRLGTFLERADNTARILDVKFQASGSDDSDPNREQNDFYHWAAVLRSVSGFEVYRKVYRAVITPQRVAELLILRPDMPRSLVSSMDEVVAILAMVCNHQSGETERQAGKLHADLKFARIDDIFAVGLHAFLTSFLERIGDIGNGISRDFLVPLQAA, MGSDKIHHHHHHMLSRVAENLYWMARYLERTEDMARLINATTLLLLDLPQGAEFGWDILLQVTGDAKLYMEHYGTPEEGRIMRFLIADERNPNSVMAAIHQARENCRTFRDLLPAEFWERLNTLFLFVREHAGTSSDSRHARYAFLNEVISRRHALVGLLISSMSQDNVYQFIKLGRNMERADMTTRIVDVTSAVILPQDQGLQKTTTSSLWLGVLRALSAFEMYRRHVSVQVRSNQVVDYLLKDNKFPRSMKYCLGEMEVALAYLPNAGIPAEAVRRARRRLDALKLANLRPDLLHEYLDQAQKDLAMVHRTIHGTYFARDDTGFDGVPSGLLLNAAQA, MGSDKIHHHHHHMLSVSSLDGEWNITEVDGQKISTERMPFIGFDVAQKRIYGNSGCNRMMGSFEADSLKPGTLKFGQIGSTRMMCPDMKTEQMVLGALDKVTSFQTVSDKPDVITLCNQDGQPLMTLEKKAAPEVSLSDLSGEWVIELVNGKKIVGTAEVTPFIGFNLDESRIYGNVGCNTINGALMQEDGKPNSLRFDNVATTMMMCPDMETETIVLNALNETKSFSMKDDKVYLLGENGNELLVLKKQ, MGSDKIHHHHHHMLTTCKSVLKLPYLEKIKVVAGEKGLNRIITWVQVVEYPEYSKWLKGGELILISGIAIKNNINSLVNFIRDINSRSLSGIVISIGPYIKEIPKEVIEIGNQLDFPIFEIPFEVKFIDVSQSICKAIFANKVNQESMENFMKDIIFRDFTFSEDILSRAVAYGYNPKTKYISFVVELHNEKDMLECDLKTKQYIEQIVIEVLGEWNKRSIHIMQYNSIILMLPKNEKRTIKNIAMNIIEEIISKAKNTSVNIGVGGEFSELRDFKISVSEAHRCLKVLKLNNDNNTVISYDELGIYKLFFQMDNLEEMKKFYLDVLKKLIDYDSKNTTELMNTLEMYIKESTNINRTAEKLFIHRNTLKYRIRRIEEITKCSLKDVNVLFNFDTALKIKKFLTMENAV, MGSDKIHHHHHHMLTTDNQLIRLSQGQLNLLETCPRKFQHTHLEQLNSPLDPDHTDKLTLGSRFHLLMQQQEMGLPIDSFLQADTQLQNWMSGFANAAPEILTPATDRQTFRESEHYRTLQFQDYLLTVIYDLLIADHQQAQIFDWKTYPKPPDKRKLAQNWQTRLYMYVLAETSQYSPENISMTYWFVQSQGKPQNIQFTYSHNLHTQTAKKLHQLLDQLTKWLNNYQQGTLFPQVPVNSKACDYCQFAKKCDRLLPTVGHKLNSSESNSLEITAQAINKSFPALDAIEEVSI, MGSDKIHHHHHHMLVVTTACNLDCAYCYEGGGNGQGEMMDLDTALRALDLVAASNQPFHVQLTGGEPLLAGELVFRILEYIRNNNLPATTAIQTNGVLLDHQTARRLHSFGTAVGVSVDGLPAIQEQLRGQGAATWKALAMLDSERVPFSVTTVLSSRNTRDLSTLGMALHSMPAASAIGLDLLVQKGSAAAKIGVQPPDAVTIRSGVTRLLATLDVLNAQRSRPLILRERQTVLKALGRDEARPYCQACTGSSLAVTPRGELYPCTQTLGDARFHLGTLDHPRLSGTALPDGRLPKREECAGCGLQGRCPGDCPSRLHYNGADGAGLVCALYRTICDYCLYKGEIPS, MGSDKIHHHHHHMLWLLMTTGKCNLKCDYCGGSFPDNVVPYGIKYDINSVKKLIEKDKDSTIIFYGGEPLLNYKFVMAVLDNVRAKRYGIQTNGIAVRLLPERYWRKINVALLSIDGREEITNKHRGKGIYKAVLRSAKYLKDLGVETIARMTVTQDTDIFTDVMHLIDLGLFDKVHWQLDVIWSEEWDFKSWSFSYLNGIKRLTDYFLSELRKGRVVKIIPILGVISAHFFEGYKGSPCGAGYSSVTVTPDGRILSCPIAVREKWAELGNVNLGYRLLEDPLPDDCKRCEFKRYCGGRCLYAQKERYWGEEGFKAVDEVNKEYLRTVLSIIPEIERLIRDGYIRLSDLYYNPILDSTEIIP, MGSDKIHHHHHHMLWSMTDGATPATPPTAAPEERFPHVNPLVYRFVVDVTFLPVLLTGMHIDVHGREHVPPPGTPLVVAANHQSALDPFLIARALPPGRYLQFMAKRELFVPVIGDIIRAGGSFPVDRESNDVGAIRTSLRILKAGGTVGIFPQGTRGGQELHGGAALIAARGRAPILPAGISHDGKRWVVRFGEPLPARGGIKANTEELGRRLQVLAQPVGRHL, MGSDKIHHHHHHMMETTQFNPIQLKRARVARGKTMKVLAEETGISRQMISNYELGKTVPSGLNLVKLISVLNFPKNYFSATQASNLHGATFFRSQNAATKRARDMQSVRLSFQNDIYTTLSQYVNFPKVDLPESLDMDVDDITNDNIKFMAMRVRDQWDLGTKTPIENLIQTAEIHGIVVVKTNMTNDKLDAVSEIIEGRPFIMLTDNGESAVRRRFNVAHELGHIVLHAGIESIHDFTSQQLKNTIERQANLFASTFLMPDDAFVESLLSTSLDYYIKLKQYWKASIQSMIYKTYQLGLINDDQKLYLNKKISWNKWRKIEPLDNILEIENPTLFGKVFNMIIDHKVVSQADLLSELKLPFDELECSLGIQLATQKNISEPKLRLL, MGSDKIHHHHHHMMGGFTVLIEMHCHTSEYSSCSGVAAVNLVRQVAAKNLQGIVLTDHHHLWEASELADVRRRAEVPDHFVILAGQEVTTPELGDVLVFGADATIERGTPLAEIRRRYPAAALVWAHPYRRGKRPTPEQLCHPLLDGVEIFNSNHTVRENSQGLQDWHRDRFTAIAGTDTHGENYAGLYPTQFDHAVKTIADLAAEIRHGRCRPFLKEIPRSGANSQVIEVTIGTKGADEVRERLIIKEIGTRHKWRSAERAFRIMGEIVGHGFDEGKFRVPRPIDEDEASMTLIEQGLRGKSLFDKLLTAEPEDGRAYLSLAAGWLARLHGCRLRITPRDEFLVREDERLARYLERFTAIGHRHTRKVQEILAAVAAEERRVVAEGSAYMVQGHGDFHPKNVFVGQDVMENRSTLFVAAIDFESSYVLPRAFDVGCFLAQFRNQFYHYGEIVNAYPEELFLEAYLRDSDQVEPDFLRQVELFRARTNMSIAAYLVKVGLGDSEDLWRVIVEAERSISNLSTGPAG
